Experimental data published in a protein production outcome set (Wang et al. 2014).

Test: label from the status in PepcDB records

| Sequence | protein production |
| --- | --- |
| MFNLYPPHRSLEGAAILGDNCSRIFNVSDTVVNTLHIVMQSHANPLGILHGGNMIRWLVDAGTLAASKVVVGYPLLAGIDFIYLGKPVGVGETIAVFAWSPYAGRSSVEVGLAAYSLGRPGGQGLERVSAAHMTFVNVKPHEGVLRPHPHGSCIEAVDREEERLLEASMKMREARVERLRGRELLRQTVYSLRESGTEPFEVESYRIVNPIDSVAYDVMHAGAMLYIVDELGAVAALRSSAGIVVTGFVGPADFVAPMRVGEVLRMWARTSYVGRSSVEVLIRSASGFMGGGEARLTSEAYLTYISLDSSGRPLEINAPRGWEPEEQALRRAEWRRRLIRSIDSGETALEPPRRFLEMLMRGRVG | failed |
| MDYLPVEVIGNILSRLGGARDVVIASATCRKWREACRKHLQTLSFNSADWPFYRDLTTNRLEILITQTIFQTMGLQGLSIMMDDANKFSAATVIAWLMYTRDTLRRLSYNVRTTPNVNILEICGRQKLEALVLAHNSITGVEPSFQRFPCLKSLSLSYVSISALDLNLLLSACPMIESLELVSLEIAMSDAQVTIELSSPTLKSVYFDGISLDKFILEADSIEFLHMKDCVLELFELIGNGTLKHFKLDDVSVIHLDIMETSESLEVVDVNHFTMVWPKFYQMISRSQKLKKLRLWDVVFDDDDEIIDVESIAAGFSHLTHLSLSYDLKDGAAHYSLQGTTQLENVTVLELGWTVINDVFSIWVEELLRRCPNLKKLIIYGVVSETKTQGDCQILATFTWSIVQLMRKYIHVEVQFEYE | failed |
| MERGRSDMEMINNMANCLILLSKAHQNDTKSRVFACKTCNKEFPSFQALGGHRASHRRSAALEGHAPPSPKRVKPVKHECPICGAEFAVGQALGGHMRKHRGGSGGGGGRSLAPATAPVTMKKSGGGNGKRVLCLDLNLTPLENEDLKLELGRFIF | failed |
| RLEDLGAASAARLLDAAEERLGRPCGRMERYGRVEREVVAAAEGAELLIVARDGDRARLGPHSLGPASRFVVDHAPCPVLLVWPAPAPGLGTIPPPPHP | not failed |
| MASKKKPIDSRVDYSLILPVFFLVLIGLFSVYTATIHDYPSKIMVVMGQQLIWLIMGAAISFVVMLFSTEFLWKITPYLYGLGLILMIFPLIFYSPELVASTGAKNWVSIGSVTLFQPSEFMKISYILILARLTVTFKQKYKEKNLQEDGKLLLWFALLTLPIMILLALQKDLGTAMVFMAILAGLVLIAGISWQIILPVVGAVALIVALFMVVFLIPGGKEFLYHHMGVDTYQINRLSAWLNPFDYAGSIAYQQTQGMISIGSGGLFGKGFNIVELPVPVRESDMIFTVIAENFGFIGGSIVLALYLILIYRMLRVTFASNNLFYTYISTGFIMMILFHIFENIGAAVGILPLTGIPLPFISQGGSSLISNLIGVGLVLSMSYQNSLNQEKATERYFAHIKKESLTS | failed |
| MAIRLTHLRKPLAYSRSFDVCIPFFRSISSFEAVEKAIKCAVETKEYLRIPELVVSLKEPYQNSTLFSFLSAFQRHHRIRVIDEILQSFVPVRPRSLPKIVYSSLLTYCLQSSDPLPLSFAILQRTLRSGCLPNPQTHLLLSDAWLERRRGSQSVADIINEMKLIGYSPDTGTCNYLVSSLCAVDKLDEAIKVVEEMSAAGCIPDVESYGAVINSLCLARKTTDVVKIVKEMVSKAGISPRKGMLTKVAAALRANREIWKAIEMIEFVESRDYPVEFESYEVVVEGCLEVREYILAGKVVMRMTDRGFIPYIKVRQKVVERLINIGEWKLACTVRQRVSELRS | failed |
| MASNEAGRALPKFGEWDVNDPATADGFTVIFSKAGEDKKTGRSSTKTNSQRKQDGDKPAVKKWLCFTFA | not failed |
| MGAFNRRNKRVNNGNVTHLRPFRRNQLRNDNAYDPDEHDLEYVRPRRRGIYLLPNAFTTAALFAGFFAIVQAMNMRFDVAAIAIFAAMVLDGMDGRVARITNTQSAFGEQYDSLSDMTSFGVAPALVMYEWILHDLGKWGWIAAFVYCTCAALRLARFNANIGVVDKRFFQGLPSPAAAALVAGFVWLAIDNKLPVKELWMPWVAFGITLYAGLSMVSNAPFYSGKALDVRYRVPFGMMVLVLVLFVVVSSDPPVALFGLFVAYAISGYLLWAWRTLHGQRGGVDKSRAPGNGSGGN | failed |
| MDDRTEYDVYTDGSYVNGQYAWAYAFVKDGKVHYEDADVGKNPAAATMRNVAGEIAAALYAVKKASQLGVKIRILHDYAGIAFWATGEWKAKNEFTQAYAKLMNQYRGIYSFEKVKAHSGNEFNDYVDMKAKSALGIRDLEHHHHHH | not failed |
| MKTVVIGAGLGGLLSAARLSKAGHEVEVFERLPITGGRFTNLSYKGFQLSSGAFHMLPNGPGGPLACFLKEVEASVNIVRSEMTTVRVPLKKGNPDYVKGFKDISFNDFPSLLSYKDRMKIALLIVSTRKNRPSGSSLQAWIKSQVSDEWLIKFADSFCGWALSLKSDEVPVEEVFEIIENMYRFGGTGIPEGGCKGIIDALETVISANGGKIHTGQEVSKILIENGKAAGIIADDRIHDADLVISNLGHAATAVLCSEALSKEADAAYFKMVGTLQPSAGIKICLAADEPLVGHTGVLLTPYTRRINGVNEVTQADPELAPPGKHLTMCHQYVAPENVKNLESEIEMGLEDLKEIFPGKRYEVLLIQSYHDEWPVNRAASGTDPGNETPFSGLYVVGDGAKGKGGIEVEGVALGVMSVMEKVLGLEHHHHHH | not failed |
| SLSSKDKDTVKALWGKIADKAEEIGSDALSRMLAVYPQTKTYFSHWKDLSPGSAPVNKHGKTIMGGIVDAVASIDDLNAGLLALSELHAFTLRVDPANFKILSHCILVLLAVKFPKDFTPEVHISYDKFFSALARALAEKYR | not failed |
| MKLSAAGVEKIKPTDKRQEIPDSLCVGLYLIVQPTGKKGWQVRYRHGGVHRRMSLGAFPVLSLAGARERARQTLAAASAGTDPAAEVKAAKAPKLDGDRDKIKTLIGQFDKRHLSKLKSGAVVRRELERHVVSAWGERDVHQIGKRDVIDLLDGIADSGRVVTANRVRAYLAKFFGWCVERDILATSPAAGVKPAGKETSRARVLTDDEIRWFWTACEAEGFPWGPFGKVLLLTGQRLNEVAQMTDSEIRGDLWHLTADRTKNGRAHDVPLTGAVRAALDEVERVTDEEGRVRFIFTTTGRTPVSGFFKARAVLAEAMVGIAQKERGEPVEIPRWTFHDLRRTAATGMARLGIPVRVTEAVLNHVSGTGGGIVAVYQRHDYADEKRQALEAWARFVLSLVEGEADNVVRLQHG | failed |
| MSLDARFDIAHLARAELFSPKPQETLDFFTKFLGMYVTHREGQSVYLRGYEDPYPWSLKITEAPEAGMGHAAMRTSSPEALERRAKSLTDGNVDGTWSEDQFGYGKTFEYQSPDGHNLQLLWEAEKYVAPPELRSKILTRPSKKPLQGIPVKRIDHLNLMSSDVTAVKDSFERHLGFRTTERVVDGNVEIGAWMSSNLLGHEVACMRDMTGGHGKLHHLAFFYGTGQHNIDAVEMFRDYDIQIEAGPDKHGITQSQFLYVFEPGGNRIELFGEAGYLHLDPDAETKTWQMSDIDTGLAVGGAKLPWESYFTYGTPSPLSLDQHIEKYAHFGEGHHHHHH | not failed |
| MDRNGANMLDGRVESDAKGSFRKDYTKMENNNNGANISDGIYRIIRSFKSFSHFFIRYEEETKEREAEMEIGFPTDVKHLSHIGVDGTMTTFDNTSSSFPFSGFHLTGTVV | failed |
| MSLSRSEEMHRLTENVYKTIMEQFNPSLRNFIAMGKNYEKALAGVTYAAKGYFDALVKMGELASESQGSKELGDVLFQMAEVHRQIQNQLEEMLKSFHNELLTQLEQKVELDSRYLSAALKKYQTEQRSKGDALDKCQAELKKLRKKSQGSKNPQKYSDKELQYIDAISNKQGELENYVSDGYKTALTEERRRFCFLVEKQCAVAKNSAAYHSKGKELLAQKLPLWQQA | not failed |
| MKCKDDMSAVLTAEQALKLVGEMFVYHMPFNRALGMELERYEKEFAQLAFKNQPMMVGNWAQSILHGGVIASALDVAAGLVCVGSTLTRHETISEDELRQRLSRMGTIDLRVDYLRPGRGERFTATSSLLRAGNKVAVARVELHNEEQLYIASATYMVG | failed |
| MVAGRRKVVPGLVLLCLGALLARSLSVLIGINELLLAIALGAVLVNTVGIPERFRHGTATYNIWLAAGIVLLGSSLTVGMIIEVGATVLLLLVAAVTLTLVTVEVLARNVAGVTDRFGSLLAAGAGICGVSAVAAVGGAVRAKEMHIAYAAGVVLLVDAVTIVVYPIVGAVLDLPDVVFGVWAGVSMLSTGPVVAVGFAHSEVAGQWATITKLARNALIGVVALGYASYYARRGAGGSTSVRMLWENFPKFVLGFLVLVGLASLGAFSPAQQDMISTVVDWLFLLAFVGLGTQIRTAELRATGITPALIVFAAVLLVSVLSLAAALVVL | failed |
| MALVLTFLGKGGVGRTTVAIAAAKKLAQAGQRVLVLGQDPSLAWQWGITLSETAQGVEANVDGLLLSSTHLLERGWEKLKEVEAQYLRSPALKNIYGEELGVLPGMDEVLVLNALREYELSGRYDVLIYDGPGNLSTLRMLGIPEIASWYWRRFQKVLADSEVVQTLSPFVQPVASAVLSVNWSPDQMLNHPDGPQNLLQQGKAAIADPNRFAAYLVTSTDSLAQKAAQSYWGGAQQVGVTVKGVIQTPLGNGSLDANLFDPLLIAALPSYNQGNWQPLMDALPNPQAMGSAPRPLEIDVNARQVKVFLPGFDKRQVKLTQSGPELTIEAGDQRRNIDLPGNLRGKGVTGAKFQGGYLIVSFLEHHHHHH | failed |
| MLTQYRQAQEDILRGRVKVRVVGQDKGGGVVMGEGVEIAPGARIEGPVLIGGACHIATGAVVGPFTVLGPYTRVEEGATVRRSVLWDNVYTGEGANVRGLEHHHHHH | not failed |
| MGVFLVLLGGIFWAISGVLAEYLFKNNYSVDWVCFYRLLSTGLILIFLSFKTQKILVFANLKESLSICIFGFFGLLLTQFGYFKAIYYTDAGTATMIQYCAPLIIMLYLCFKNKKFPKLIEIFALILIIFALFLLATKGDIEAVVLNYWGIFWAVIGAFGVAFYSLSAREVILKYGLFWIMGWASLFASFVFLLILQFDKGLIHYAFNLKAFFSMGGIVFIGTIGAFCLYLKGVEYIGALRASMIASIEPVAAALMSFLFLKTRYSLLDIFAFVLIILSVILNAKKTKAS | failed |
| MLVTVMIPTYNQKDYVGSAIESALAQTYADLEIVVADDASPDPGVAKVLERYRNHPKVRLYRNAQNLGRVANYRKTLYERARGEWVINLDGDDYLVDPCFVEDAVGVVKKHPDIVAVLGGRKVLQASGTHKVQQANVCLSGRVAPRDVFSGILDGTLFPYHNATLYSRTHALAIGFYEQDIVSSDLESFLRLFARGAVGVLPRIVGVWREHSGNTSGTMAFSDYLANIQVFESVMHTAEEPDIAVKSSFLKSWSSRYAYSKGKDYAYRLLKDSDSPSLCFGYLKRLSKVSSVAALRILIQPKVLFNLLARALPSQISRCFR | failed |
| PKIAGIDLGTTYSSIGIYHAVTGETIILPDDLGKKSVPSVVAFLPNGTVLIGTRATEQQEHNPKRTIYDAKRFIGRNFEKNNKDFLSDQKRYPFKINLDSEGKAFFEIPLDSGTKNVYPEEIGSLIIGYLKSAAAKHLGVTLGQVVISCPAEFNEKQRNFTAKAAEIAEMEVRRVISEPTAAALAYGLHKKQGVENVVVVDLGGGTLDVSVLWLQGGVFVTQAMAGNNRLGGQDFNDRVQKHLISKIAEKFGKTIDNKEDIQQIRMEVEKGKIRLTNVPSTTISLNLKTVGKWNYELTRDEFETLNGDLLKAIELPITAALADANLDTADVDEIVLVGGSTQVPAVRKIVGRFFKKSANYGVDPELAVVTGASVQAGVIGGGWPLQVAAMELPAKRRKRHFFTEEQKENEKDRTISEL | not failed |
